Results as given in patent US20250250308A1, “METHODS AND COMPOSITIONS WITH ANTIFUNGAL ACTIVITY” (priority 2022, published 2025).

B1: EntV: 68 amino acid active C-terminal form of the E. faecalis bacteriocin EntV (SEQ ID NO: 14) (protein, listed as Enterococcus faecalis)
chain: LGSCVANKIKDEFFAMISISAIVKAAQKKAWKELAVTVLRFAKANGLKTNAIIVAGQLALWAVQCGLS

Tests used:
[1] = system: Lactobacillus sakei ATCC 15521; experiment: Lactobacillus MIC assay (growth in liquid culture); format: cell-based
Method: FIG. 8: EntV fragments have no inhibitory activity against Lactobacillus sakei. L. sakei was cultured in Lactobacilli MRS broth overnight and diluted 1/10 into fresh medium to which EntV and EntV fragments were added at various concentrations. After 24 hours of growth at 30° C., the OD625 readings were taken.
Lactobacillus MIC Assay. For this assay, Lactobacillus sakei ATCC 15521 (Torriani et al., 1996) was used following the methodology as described with a few modifications (Chang et al., 2011). Briefly L. sakei was grown in Lactobacilli MRS broth (Difco, Detroit, MI, USA) for 18 h at 30° C. without agitation (Malheiros et al., 2015). Following adjustment to a concentration of 1×10^6 cells/ml, cells were diluted 1:10 into fresh MRS medium containing the indicated concentrations of EntV fragments. After 24 hours of growth at 30° C. without agitation, OD625 readings were taken using a BioTek Cytation5 plate reader. Readings of blanks (containing fresh MRS medium) were subtracted from sample wells. Three technical replicates were averaged, and the experiment was repeated three times.

[2] = system: C. albicans; experiment: C. albicans adhesion assay (polystyrene plates, crystal violet); format: cell-based; conditions: vs. DMSO control
Method: This, like many manifestations of Candida infections, requires adhesion of the fungal cell to surfaces, both biotic and abiotic, whereupon biofilm structures are commonly formed. A model in which binding to plastic surfaces is a measure of the initial stage of biofilm differentiation. In this assay, cells are incubated in polystyrene 96 well plates with the peptides in PBS for one hour and then overlaid with artificial saliva media for 90 minutes before washing and quantitation of adhesion using crystal violet.
C. albicans adhesion assays. The C. albicans adhesion assays were performed using similar techniques as described previously (Gulati et al., 2018). C. albicans strains were grown in YPD broth for 18 h at 30° C. with agitation and then sub-cultured for 4 h in the same conditions. Cells were then collected by centrifugation, washed twice in PBS, and adjusted to a concentration of 1×10^7 cells/ml (measured with Countess II, Life Technologies) in PBS treated with the indicated concentrations of test compounds. The cell suspension was incubated for 1 h at 30° C. with agitation. […]
The adhered cell layer was then stained for 20 minutes with 40 μl of 0.08% crystal violet solution (diluted, Sigma). […] The optical density at 595 nm (OD595) was measured using a Synergy H1 plate reader (BioTek) with Gen5 version 3.08 software (BioTek).

[3] = system: C. albicans; experiment: Rat venous catheter biofilm model; format: in vivo; conditions: 24 h
Method: The wild-type 12-mer (SEQ ID NO: 4) is protective in a rat venous catheter model of C. albicans infection. C. albicans can form prodigious biofilms on implanted medical devices and the presence of an intravenous catheter is, by itself, a significant risk factor for developing disseminated candidiasis. These infections are notoriously difficult to treat and are associated with the drug resistance characteristic of biofilms. Thus, full-length EntV was tested in a model in which an intravenous catheter is implanted into the jugular vein of rats and inoculated with C. albicans with or without the peptide. After 24 hours, the catheter is removed and sectioned to assess fungal burden by plating for CFUs and by scanning electron microscopy (SEM). […] As the minimal peptide length was determined, this model utilized along with the 12-mer peptide, this time at a lower concentration to probe the extent of protection.
Rat catheter model: The protocol for the rat catheter biofilm was conducted as previously described (Andes, et al., 2004). Briefly, indwelling central venous catheters in rats were inoculated with 1×10^6 cells/mL C. albicans with or without 100 nM EntV or 20 nM 12-mer peptide (group size was 3). To quantitate fungal burden after 24 h, the catheter was removed, and 1 cm of the tip placed in a one milliliter of sterile 0.9% NaCl followed by vortexing. A 1:10 serial dilution of this wash fluid was plated on SDA and colonies counted after 24 h of growth at 35° C. For scanning electron microscopy (SEM), catheters were fixed overnight in 4% formaldehyde and 1% glutaraldehyde in PBS. The catheters were then washed with PBS and treated with 1% osmium tetroxide in PBS for 30 min. Serial ethanol washes and critical point drying were used to dry the segments before they were mounted, and palladium-gold coated. All images were taken using a SEM LEO 1530, with Adobe Photoshop CC (20.0.4 release) used for image compilation.

[4] = system: C. albicans; experiment: Killing of C. elegans by C. albicans (survival of infected nematodes); format: in vivo; conditions: original strain and fluconazole-resistant descendent; 1 nM
[5] = system: C. albicans; experiment: Growth of C. albicans in shaking cultures; format: cell-based
Method: These shorter peptides are no longer bacteriocins, having separated the antifungal and antibacterial activities. Furthermore, despite its robust protection against infection, EntV is not toxic to C. albicans. Growth of C. albicans was unaffected when EntV was added to shaking cultures in concentrations as high as 30 μM

[6] = system: mouse cells; conditions: cited from earlier work

Molecule	Antibacterial (bacteriocin) activity against L. sakei ([1]; various concentrations, 24 hours)	Adhesion of C. albicans to polystyrene [2]	Catheter surface biofilm by SEM ([3]; 20 nM)	Reduction of catheter fungal burden ([3]; 20 nM) [logs]	Protection of C. elegans infected with paired C. albicans clinical isolates [4]	Lowest concentration abrogating growth of L. sakei ([1]; liquid culture, 24 hours at 30° C., OD625) [nM]	Highest concentration at which growth of C. albicans was unaffected [5] [µM]	Toxicity to mouse cells [6]	Catheter fungal burden (CFUs) ([3]; 100 nM, detection limit 100 CFU)
VAGQLALWAVQC [12aa]	no longer had bacteriocin activity	as effective in protecting against C. albicans infection in the worm model and inhibiting surface adhesion as full-length EntV	largely clear of fungal biofilm	1.5	–	–	–	–	–
B1	–	significantly reduced adhesion to polystyrene	–	–	protected	≤ 10	≥ 30	no toxicity	below the limit of detection
